Substitutions are numbered along the chain they refer to.
B1: 5G06NT Format 41 diabody bispecific antibody (anti-G8 x anti-CD3) (bispecific antibody, V domains shown)
VH: EVQLLESGGGLVQPGGSLRLSCAASGFTFSDYYMSWVRQAPGKGLEWVSGINWPGGSTGYADSVKGRFTISRDNSKNTLYLQMNSLRAEDTAVYYCARVEQGYDIYYFYYMDVWGKGTTVTVSS
VL: DIQMTQSPSSLSASVGDRVTITCRASQSISSYLNWYQQKPGKAPKLLIYKASSLESGVPSRFSGSGSGTDFTLTISSLQPEDFATYYCQQSYSAPYTFGPGTKVDIK
B2: 1B03 (G8-1B03, Parent A) Format 41 diabody bispecific antibody (anti-G8 x anti-CD3) (bispecific antibody, V domains shown)
VH: B1 VH with P54N, F108Y
VL: B1 VL
B3: 05G09 scFv (scFv, V domains shown)
VH: B1 VH with S49G, G59D, F108Y
VL: B1 VL
notes: As m4; also called 0509
B4: 09D01 scFv (scFv, V domains shown)
VH: B1 VH with P54H, G55H, F108Y
VL: B1 VL
notes: As m4: periplasmic-extract scFv
B5: 05A03 scFv (scFv, V domains shown)
VH: B1 VH with F27Y, F108Y
VL: B1 VL
notes: as for B4
B6: 09D06 scFv (scFv, V domains shown)
VH: B1 VH with G56S, E100R, I105Y, F108Y
VL: B1 VL
notes: as for B4
B7: 09G01 scFv (scFv, V domains shown)
VH: B1 VH with G50V, G56S, F108Y
VL: B1 VL
notes: as for B4
B8: 05A08 scFv (scFv, V domains shown)
VH: B1 VH with F27Y, S49G, G50N, P54N, G59L, I105N, F108Y
VL: B1 VL
notes: as for B4
B9: 05G06 scFv (scFv, V domains shown)
VH: B1 VH with T69N
VL: B1 VL
notes: As m4: periplasmic-extract scFv; also called 04A11
B10: 05C04 scFv (scFv, V domains shown)
VH: B1 VH with F27Y, S57Y, F108Y
VL: B1 VL
notes: as for B4

Each binder was assayed against T1, CD3 on CD3+ Jurkat cells (assay: flow cytometry, Format 41 bispecific on CD3+ Jurkat cells).
T1 construct: whole, on cells
T1 sequence (P07766 23-207): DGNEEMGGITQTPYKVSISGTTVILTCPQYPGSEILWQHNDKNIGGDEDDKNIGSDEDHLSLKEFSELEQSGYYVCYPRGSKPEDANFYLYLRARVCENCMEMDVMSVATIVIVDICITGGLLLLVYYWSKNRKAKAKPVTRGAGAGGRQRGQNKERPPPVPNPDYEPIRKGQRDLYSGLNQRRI

EC50 | Binder
41 nM | B1
161 nM | B2

The binders below were run against T2, HLA-A*02:01 / … complex (HLA-PEPTIDE target G8) on cells (human) (assay: flow cytometry, Format 41 bispecific on A375 cells expressing ~300,000 copies of the pHLA 10mer).
T2 construct: whole, on cells; also called target pHLA; pHLA 10mer

EC50 | Binder
0.11 nM | B1
72.8 nM | B2

These binders were tested against T3, biotinylated pHLA: HLA subtype A*02:01 complexed with … (HLA-PEPTIDE target G8) (human) (assay: MSD specificity ratio; threshold for selection of the 12 hit clones of Table 14).
T3 construct: Soluble biotinylated pHLA coupled to U-PLEX linker 1 in the MSD assay; also called pHLA target
Method: G8 scFv screening was conducted using the Meso Scale Discovery U-PLEX Development Pack, 9-assay (cat. No. K15234N). The pack contains a 10-spot U-PLEX plate with 9 activated spots and 9 unique linkers as well as stop solution and read buffer. Biotinylated pHLA and biotinylated Protein L were each diluted to 33 nM using PBS+0.5% BSA. For each plate, 200 μL of the diluted pHLA or protein L was mixed with 300 μL of the corresponding Linker (see Table 9) and incubated at room temperature for 30 minutes.
Following the 30-minute incubation, 200 μL stop solution was added to each linker-pHLA solution. They were again incubated for 30 minutes at room temperature. These volumes were scaled based on the number of plates. The linker-pHLA solutions were then a 10× solution. They were then pooled together and further diluted with stop solution to the final 1× concentration. For example, for one plate with one linker, 600 μL pHLA would be diluted with 5.4 mL stop solution for the 1× concentration with a total volume of 6 mL. For one plate using 8 linkers, 600 μL of each linker was pooled to give 4.8 mL volume and 1.2 mL additional stop solution added for the final 6 mL volume. All volumes were scaled for additional plates. The pooled linker-pHLA solution was then coated onto the 10-spot plate as 50 μL/well, the plate sealed and stored at 4° C. overnight.
Samples, periplasmic extracts (PPE) were diluted 40-fold with PBS+1% BSA. The plate was washed 3 times with PBS+0.05% Tween and samples added as 50 μL/well. Plates were incubated at room temperature shaking for 2 hours. The plates were washed as before and 50 μL of 1 μg/mL SulfoTag anti-Myc tag (Abcam, ab206486) was added to each well. The anti-Myc tag antibody was sulfo-tag labeled using the MSD Gold Sulfo-tag NHS-Ester Conjugation kit (Meso Scale Discovery, R31AA-2) at a challenge ratio of 10. The plates were incubated for 1 hour shaking at room temperature. The plate wash was repeated and 150 μL 2× Read Buffer T (Meso Scale Discovery, R92TC-2) was added to all wells and the plate read immediately on the Quickplex SQ 120.

target/OTLA specificity | Binder
> 50 ratio | B3
> 50 ratio | B4
> 50 ratio | B5
> 50 ratio | B6
> 50 ratio | B7
> 50 ratio | B8
> 50 ratio | B9
> 50 ratio | B10

These binders were tested against T2, HLA-A*02:01 / … complex (HLA-PEPTIDE …) (assay: cell-based or functional assay).

Binder | EC 50 (nM), cytotoxicity of A375 FoxE1 cells
B1 | 0.08 nM

From US20230295305A1 (GRITSTONE BIO, published 2023)
